Measurements reported in patent US5739278A, “Compositions for protein tyrosine phosphatases” (University of Washington, priority 1995, dated 1998).
Where no end group is shown, it is not given here. [ ]: non-standard residue; d: D form. pY = N[C@@H](Cc1ccc(OP(=O)(O)O)cc1)C(=O)O

Columns and labels:
TC.PTP [1] = molecular target: T1, TC.PTP (Homo sapiens, UniProt P17706); experiment: Determination of TC.PTP activity in immunoprecipitates; type: biochemical; conditions: for % Dephosphorylation: 100% = total bound radioactivity in the assay
T1 construct: made in house; host or cells: Sf9 cells (baculovirus)
T1 sequence (P17706 1-415): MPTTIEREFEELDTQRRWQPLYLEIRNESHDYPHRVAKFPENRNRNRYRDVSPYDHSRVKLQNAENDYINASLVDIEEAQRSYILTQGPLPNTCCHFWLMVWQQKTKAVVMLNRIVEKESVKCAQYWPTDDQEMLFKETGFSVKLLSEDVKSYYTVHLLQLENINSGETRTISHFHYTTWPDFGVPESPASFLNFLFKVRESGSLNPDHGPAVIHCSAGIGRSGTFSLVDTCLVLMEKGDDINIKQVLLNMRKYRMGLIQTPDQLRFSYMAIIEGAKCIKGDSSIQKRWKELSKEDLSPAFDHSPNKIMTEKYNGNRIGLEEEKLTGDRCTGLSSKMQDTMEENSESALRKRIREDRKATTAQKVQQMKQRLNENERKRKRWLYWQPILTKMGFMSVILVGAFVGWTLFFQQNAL
Protocol: Immunoprecipitations were carded out in 500 μl buffer AT containing phosphatase (in the amount indicated in the tables below), 3 μl rabbit antisera #6228 raised against the baculovirus expressed TCΔC11.PTP (Zander et al., Biochemistry 30: 6964-6970, 1991) and 20 μl protein A agarose beads. The mixture was rotated overnight at 4° C. The beads were washed three times with HNTG and tested for PTP activity. No PTP activity was detected in controls without antisera.
Phosphatase assays with ENDY(P)INASL were performed in buffer M6. Aliquots of 30 μl or 60 μl containing the phosphopeptide, the phosphatase (-beads) and effectors were incubated for 10 minutes at 30° C. The reaction was stopped by adding 200 μl of a suspension of 10% activated, acid-washed Norit A charcoal (v/v) in 0.9N HCl, 0.1M pyrophosphate and 2 mM NaH2 PO4 (according to Streuli et al., Proc. Natl. Acad. Sci. USA 86: 8698-8702, 1989). The mixture was cleared by 10-minute centrifugation and the radioactivity of 150 μl of the supernate was determined. Assays with MBP and RCML were performed as described in Tonks et al., J. Biol. Chem. 263: 6722-6730, 1988. Protein concentration was determined with BSA as standard (Bradford, Anal. Biochem. 72: 248-254, 1976).

TC.PTP [2] = molecular target: T1, TC.PTP; experiment: Phosphatase assay with ENDY(P)INASL as substrate; type: biochemical; conditions: TC20
How it was run: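 Enzyme, phosphopeptide and effectors are combined in buffer M6, then incubated 10 minutes at 30° C. Acid-washed charcoal in HCl, pyrophosphate and phosphate stops the reaction. After centrifugation, supernatant radioactivity is measured; enzymes were from Sf9 cells (TC.PTP, RPTPα), placenta (PTP1B, 37 kDa) or spleen (CD45).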

ENDY(P)INASL: ENDYINASL phosphorylated on its tyrosine residue (32P), used as PTP substrate (END[pY]INASL; also: phosphate 32P-labelled)
Lowest amount of immunoprecipitated phosphatase that could be detected with the substrate (TC.PTP [1]; TC.PTP immunoprecipitates on beads): 1 ng
% Dephosphorylation (TC.PTP [1]; immunoprecipitated TC.PTP 0.3 ng): 0%
% Dephosphorylation (TC.PTP [1]; immunoprecipitated TC.PTP 1 ng): 1.8%
% Dephosphorylation (TC.PTP [1]; immunoprecipitated TC.PTP 3 ng): 3.9%
% Dephosphorylation (TC.PTP [1]; immunoprecipitated TC.PTP 10 ng): 10.8%
% Dephosphorylation (TC.PTP [1]; immunoprecipitated TC.PTP 30 ng): 17.5%
% Dephosphorylation (TC.PTP [1]; immunoprecipitated TC.PTP 100 ng): 28.1%
Km (TC.PTP [2]; non-linear regression of substrate saturation curves, mean of two experiments): 1130 ± 140 nM
Vmax (TC.PTP [2]; one unit = release of 1 nmol phosphate per minute): 14221 +/- 7104 U/mg
